Test results: IntAct's records for PubMed 25265331

B1: Replication restart protein DnaT (Escherichia coli (strain K12)), P0A8J2 (parent)
chain: MSSRVLTPDVVGIDALVHDHQTVLAKAEGGVVAVFANNAPAFYAVTPARLAELLALEEKLARPGSDVALDDQLYQEPQAAPVAVPMGKFAMYPDWQPDADFIRLAALWGVALREPVTTEELASFIAYWQAEGKVFHHVQWQQKLARSLQIGRASNGGLPKRDVNTVSEPDSQIPPGFRG
partner: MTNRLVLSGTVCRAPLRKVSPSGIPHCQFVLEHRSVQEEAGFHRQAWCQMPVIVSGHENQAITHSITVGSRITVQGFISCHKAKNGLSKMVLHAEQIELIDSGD

Variants of: B1
Conditions: with prib_ecoli priB

Variant	effect of a mutation on the interaction
MSSRVLTPDVVGIDALVHDHQTVLAKAEGGVVAVFANNAPAFYAVTPARLAELLALEEKLARPGSDVALADQLYQEPQAAPVAVPMGKFAMYPDWQPDADFIRLAALWGVALREPVTTEELASFIAYWQAEGKVFHHVQWQQKLARSLQIGRASNGGLPKRDVNTVSEPDSQIPPGFRG [D70A]	disrupting interaction
